Results on one molecule are retold here after patent publication US20100278806A1, “Composition Containing Arazyme for the Prevention and Treatment of Arthritis” (Insect Biotech Co., Ltd., priority 2008, published 2010).

Data set [1] concerns Wistar-derived SPF female rats. As to the kind of experiment: Acute toxicity experiment of arazyme, single oral administration. It is filed as in vivo. On the procedure:
4 groups, each consisting of 4 Wistar-derived specific pathogen free (SPF) female rats (Orient Co., Ltd., Seoul, Korea), were bred in an animal laboratory under conditions of temperature 22° C.±3° C., humidity 55±10%, and illumination 12 L/12 D. After purchase, the rats were quarantined and adapted in the animal laboratory for 1 week. During the whole test period, 5 or less rats were accommodated in each polycarbonate cage (240 W×390 L×175 H mm). For individual identification, both skin mark using an oil marker and group distinction cards at each breeding box were used. Solid fodder for experimental animals (PMI Nutrition International, USA) was sterilized, and tap water was freely given by a water bottle.
Arazyme in the Examples was dissolved in sterilized water for injection at 0, 1250, 2500, and 5000 mg/kg, prepared at a dose of 10 ml/kg, and orally administered to the rats using zonde one. After 1 week adaptation, the rats were divided into 4 groups and arazyme was administered to 10 week-old rats at each concentration to observe general symptoms. Subsequently, an autopsy was performed after 24 hours in order to evaluate the toxicity of arazyme on actual organs.
After oral administration of arazyme into female rats, the behaviors, appearances, and functions of the animals were investigated in order to observe general symptoms exactly according to the administration of a test material and evaluate the toxicity.

The subject of data set [2] is joint cartilage of osteoarthritis-induced right knee. As to the kind of experiment: Histopathological observation of joint cartilage (H&E, toluidine blue, azan), osteoarthritis-induced rabbits. Particulars: autopsy at 12 weeks, optical microscope. It is filed as in vivo, NewZealand White Rabbits. An excerpt:
(§1) It is known that not only repetitive joint damage but also a lesion similar to that of human degenerative osteoarthritis is induced in a rabbit model with knee meniscus removed. A method for tearing the cranial cruciate ligament is used as a method for inducing osteoarthritis in rabbits (Hulth A. et al., Acta Orthp Scand. 41:522-530, 1970). In the present experiment, the cranial cruciate ligament of a rabbit was torn to induce the instability of joints and simultaneously medial meniscus was removed to induce osteoarthritis.
The cranial cruciate ligaments of right knees of all the experimental animals were torn to induce the instability of joints and medial meniscuses were simultaneously removed to induce osteoarthritis. Sharm-operations were performed on the left knees to be used as a control against administration of a test material. Tear of cranial cruciate ligament and medial meniscus removal were performed as follows. The animals were fasted for 6 to 12 hours prior to the operation and only drinking water was supplied. Subsequently, an anesthetic of Xylazine (Rompun, Bayer Korea Ltd.) at 1.25 ml/6 mg/kg and Zoletil50 (Virbac) at 0.2 ml/10 mg/kg was intramuscularly injected to anesthetize the animals. […]
(§2) In order to induce osteoarthritis effectively, all the animals in the experimental group were subjected to a forced exercise task using a treadmill for 5 min every day from the day 4 after the induction surgery of osteoarthritis, and arthrography was performed on both knee joints at 4 weeks, 8 weeks, and 12 weeks after administration of the test material to measure the changes of joint surface. An autopsy was performed at 12 weeks after administration of the test material to conduct serologic tests of blood samples through collection of blood and control effects of the test material on osteoarthritis were assessed through a histopathological test. […]

For data set [3], the system named is TNF-α. As to the kind of experiment: Measurement of TNF-α in serum by ELISA, osteoarthritis-induced rabbits. The note with it: autopsy at 12 weeks of administration in drinking water, arazyme 250 mg/kg, celecoxib 10 mg/kg/day, no statistical significance. It is filed as in vivo, NewZealand White Rabbits.
Excerpt: as §1
(§3) The cranial cruciate ligaments of right knees of all the experimental animals were torn to induce the instability of joints and medial meniscuses were simultaneously removed to induce osteoarthritis. […]
as §2
A general note: ELISA stands for enzyme-linked immunosorbent assay.

Data set [4] concerns joint cartilage of osteoarthritis-induced right knee. Put plainly: Visual observation of the changes of joint cartilage, osteoarthritis-induced rabbits. It is filed as in vivo, NewZealand White Rabbits. Particulars: autopsy at 12 weeks.
Excerpt: as §1, §3, §2

[5] abbreviates: after single oral administration up to 5000 mg/kg.

B1: arazyme: enzyme purified from Aranicola proteolyticus HY-3 (KCTC 0268BP) culture; monomer of approximately 51.5 kDa; amino acid sequence SEQ ID No: 1 (protein, listed as Aranicola proteolyticus)
chain: MQSTKKAIEITESSLAAASSAYNAVDDLLHYHERGNGIQVNGKDSFSTEQAGLFITRENQTWNGYKVFGQPVKLTFSFPDYKFSSTNVAGDTGLSKFSAEQQQQAKLSLQSWSDVANITFTEVGAGQKANITFGNYSQDRPGHYDYDTQAYAFLPNTIYQGQNLGGQTWYNVNQSNVKHPASEDYGRQTFTHEIGHALGLSHPGDYNAGEGNPTYRDASYAEDTREFSLMSYWSETNTGGDNGGHYAAAPLLDDISAIQHLYGANQTTRTGDTVYGFNSNTGRDFLSTTSNPQKVIFAAWDAGGNDTFDFSGYTANQRINLNEKSFSDVGGLKGNVSIAAGVTIENAIGGSGNDVIVGNAANNVLKGGAGNDVLFGGGGADELWGGAGKDTFVFSAVSDSAPGASDWIKDFQKGIDKIDLSFFNQGAQGGDQIHFVDHFSGAAGEALLSYNASNNVSDLALNIGGHQAPDILVKIVGQVDVATDFIV
modifications: Zn binding site (192)..(192); Zn binding site (196)..(196); Zn binding site (323)..(323)
On to B1, for which, in data set [1] (24 hours after oral administration up to 5000 mg/kg), the “microscopic findings in liver, heart, lung and pancreas” value is on record as “No pathological symptoms were observed”. Moreover, in data set [1] (setting [5]), the “general symptoms (activity, walking, temperament, convulsion)” value is on record as “no abnormal symptoms”; the “outward appearance and functions (respiration, salivation, feces, vomiting)” value was “No abnormal changes were observed”. For the same molecule, the “estimated LD50” value in data set [1] (single oral administration 0, 1250, 2500, 5000 mg/kg) is “at least 5000 mg/kg”. Moreover, in data set [2], the “damage of joint cartilage, hematoxylin-eosin staining” value is reported as “most of the vertical fissures were formed into sites corresponding to the mid zones from the surface”; the “loss of collagen, azan staining” value is recorded as “weak loss of collagen”; the “loss of proteoglycan, toluidine blue staining” value was “proteoglycan was lost into the mid zone”. In data set [3], the “expression of TNF-α in serum compared with negative control group” value is given as “at a lower level than the negative control group”. In addition, in data set [4] (arazyme 250 mg/kg, celecoxib 10 mg/kg/day), the “cartilage damage of femoral joint surface, visual observation” value was “less cartilage damage was generally shown than in the negative control group”. Moreover, in data set [4] (positive control group compared with test material group), the “lesions of tibia joint surface, visual observation” value is “generally similar lesions were observed in the groups”.
